In publication PMC2929593:

How the values were obtained:
Test in all cases: DTNB continuous spectrophotometric thioesterase assay
Assay type in all cases: biochemical, Escherichia coli
Details in all cases: pH 7.5, 25 °C
[1] = substrate: CCCCCC(=O)SCCNC(=O)CCNC(=O)[C@H](O)C(C)(C)COP(=O)(O)OP(=O)(O)OC[C@H]1O[C@@H](n2cnc3c(N)ncnc32)[C@H](O)[C@@H]1OP(=O)(O)O
[2] = substrate: CC(C)(COP(=O)(O)OP(=O)(O)OC[C@H]1O[C@@H](n2cnc3c(N)ncnc32)[C@H](O)[C@@H]1OP(=O)(O)O)[C@@H](O)C(=O)NCCC(=O)NCCSC(=O)c1ccc(O)cc1
[3] = substrate: CCC(=O)SCCNC(=O)CCNC(=O)[C@H](O)C(C)(C)COP(=O)(O)OP(=O)(O)OC[C@H]1O[C@@H](n2cnc3c(N)ncnc32)[C@H](O)[C@@H]1OP(=O)(O)O
[4] = substrate: CCCCCCCCCCCCCCCC(=O)SCCNC(=O)CCNC(=O)[C@H](O)C(C)(C)COP(=O)(O)OP(=O)(O)OC[C@H]1O[C@@H](n2cnc3c(N)ncnc32)[C@H](O)[C@@H]1OP(=O)(O)O
[5] = substrate: CC(C)(COP(=O)(O)OP(=O)(O)OC[C@H]1O[C@@H](n2cnc3c(N)ncnc32)[C@H](O)[C@@H]1OP(=O)(O)O)[C@@H](O)C(=O)NCCC(=O)NCCSC(=O)c1cccc(O)c1
[6] = substrate: CCCCCCCCCC(=O)SCCNC(=O)CCNC(=O)[C@H](O)C(C)(C)COP(=O)(O)OP(=O)(O)OC[C@H]1O[C@@H](n2cnc3c(N)ncnc32)[C@H](O)[C@@H]1OP(=O)(O)O
[7] = substrate: CC(=O)SCCNC(=O)CCNC(=O)[C@H](O)C(C)(C)COP(=O)(O)OP(=O)(O)OC[C@H]1O[C@@H](n2cnc3c(N)ncnc32)[C@H](O)[C@@H]1OP(=O)(O)O
[8] = substrate: CC(C)(COP(=O)(O)OP(=O)(O)OC[C@H]1O[C@@H](n2cnc3c(N)ncnc32)[C@H](O)[C@@H]1OP(=O)(O)O)[C@@H](O)C(=O)NCCC(=O)NCCSC(=O)Cc1cccc(O)c1
[9] = substrate: CCCCCCCCCCCC(=O)SCCNC(=O)CCNC(=O)[C@H](O)C(C)(C)COP(=O)(O)OP(=O)(O)OC[C@H]1O[C@@H](n2cnc3c(N)ncnc32)[C@H](O)[C@@H]1OP(=O)(O)O

B1: EntH (Escherichia coli K-12) (protein)
chain: MIWKRHLTLDELNATSDNTMVAHLGIVYTRLGDDVLEAEMPVDTRTHQPFGLLHGGASAALAETLGSMAGFMMTRDGQCVVGTELNATHHRPVSEGKVRGVCQPLHLGRQNQSWEIVVFDEQGRRCCTCRLGTAVLG
Km [1]: 350 ± 90 µM | kcat [1]: 0.058 ± 0.001 s⁻¹ | Km [2]: 21 ± 2 µM | kcat [2]: 1.55 ± 0.05 s⁻¹ | Km [3]: 400 ± 40 µM | kcat [3]: 0.0125 ± 0.0006 s⁻¹ | Km [4]: 55 ± 9 µM | kcat [4]: 0.085 ± 0.004 s⁻¹ | Km [5]: 35 ± 1 µM | kcat [5]: 1.21 ± 0.01 s⁻¹ | Km [6]: 49 ± 3 µM | kcat [6]: 0.0267 ± 0.0004 s⁻¹ | Km [7]: 800 ± 90 µM | kcat [7]: 0.0044 ± 0.0002 s⁻¹ | Km [8]: 37 ± 1 µM | kcat [8]: 2.1 ± 0.5 s⁻¹ | Km [9]: 45 ± 2 µM | kcat [9]: 0.0281 ± 0.0003 s⁻¹
